Reference: PMC4771647, “Improving the thermostability and stress tolerance of an archaeon hyperthermophilic superoxide dismutase by fusion with a unique N-terminal domain” (SpringerPlus, 2016)
“And” between values parts separate entries of the source, which are not always exact repeats. Equal entries are not always repeated. Each block holds one molecule with its values, some of them ahead of it.

Columns and labels:
[1] = target: rSODSs, fusion of the N-terminal domain (NTD) of SOD NG2215 of Geobacillus thermodenitrificans NG80-2 with SODSs (Geobacillus thermodenitrificans NG80-2 | Sulfolobus solfataricus); test: AUC; sedimentation velocity, interference data, 36,000 rpm, An-60 Ti rotor, 4 °C; 50 mM potassium phosphate buffer plus 150 mM NaCl, pH 8.0; continuous c(s) distribution (SEDFIT)
[2] = target: the molecule itself; test: as above

- stoichiometry N [1]: 4 and 2
Molecule: rSODSs, fusion of the N-terminal domain (NTD) of SOD NG2215 of Geobacillus thermodenitrificans NG80-2 with SODSs (enzyme)

B1: superoxide dismutase from the archaeon Sulfolobus solfataricus (SODSs) (enzyme, UniProt P80857 1-211, looked up)
chain: MTLQIQFKKYELPPLPYKIDALEPYISKDIIDVHYNGHHKGYVNGANSLLERLEKVVKGDLQTGQYDIQGIIRGLTFNINGHKLHALYWENMAPSGKGGGKPGGALADLINKQYGSFDRFKQVFTETANSLPGTGWAVLYYDTESGNLQIMTFENHFQNHIAEIPIILILDEFEHAYYLQYKNKRADYVNAWWNVVNWDAAEKKLQKYLTK
notes: Fe superoxide dismutase (SODSs) of Sulfolobus solfataricus; gene synthesised into pET-28a (pET-SODSs); expected size 24.2 kDa; Tetramer by analytical ultracentrifugation (major peak), with small quantities of dimers; also called Fe-SODSs; native SODSs
- stoichiometry N [2]: 4 and 2
